{"source": "paper PMC10377887", "about": "“Individual Contributions of Amido Acid Residues Tyr122, Ile168, and Asp173 to the Activity and Substrate Specificity of Human DNA Dioxygenase ABH2”", "binders": {"B1": {"name": "m1A (dsDNA)", "DNA 1": "AGTTCAATGATCTTCAT", "DNA 2": "ATGAAGATCATTGAACT", "modifications": "N1-methyladenine at position 10 of strand 1"}, "B2": {"name": "m3C (dsDNA)", "DNA 1": "AGTTCAATGATCTTCAT", "DNA 2": "ATGAAGATCATTGAACT", "modifications": "N3-methylcytosine at position 12 of strand 1"}}, "assay_in_all_cases": "EMSA; 0.5 mM αKG, 10 mM Mg2+, 2 mM ascorbate; EMSA: 50 mM Tris-HCl pH 8.0, 50 mM KCl, 10 mM MgCl2, 0.5 mM αKG, 2 mM Na ascorbate; 1.2 µM DNA, 0.4-12.8 µM protein; 10 min 37 °C then 5 min on ice; 10% native", "settings_in_all_cases": "protein: recombinant; tags: N-terminal His6; label: 5'-FAM on strand 1; blunt", "key": {"ABH2 Y122A": {"molecular_target": "T1, ABH2 Y122A (human, UniProt Q6NS38 1-261, Y122A)", "T1 sequence": "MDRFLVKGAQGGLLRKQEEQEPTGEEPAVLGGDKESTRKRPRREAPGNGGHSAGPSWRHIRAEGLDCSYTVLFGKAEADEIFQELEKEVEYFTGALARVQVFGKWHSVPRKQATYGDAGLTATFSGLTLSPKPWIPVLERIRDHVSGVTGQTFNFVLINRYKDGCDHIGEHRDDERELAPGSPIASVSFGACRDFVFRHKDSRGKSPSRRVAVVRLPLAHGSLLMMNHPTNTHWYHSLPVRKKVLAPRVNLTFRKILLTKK"}, "ABH2 I168A": {"molecular_target": "T2, ABH2 I168A (human, UniProt Q6NS38 1-261, I168A)", "T2 sequence": "T1 sequence with A122Y, I168A"}, "ABH2 D173A": {"molecular_target": "T3, ABH2 D173A (human, UniProt Q6NS38 1-261, D173A)", "T3 sequence": "T1 sequence with A122Y, D173A"}}, "note": "Residue numbers refer to the chain shown, from its start.", "data": [{"binder": "B1", "values": [{"measurement": "Kd", "setting": "ABH2 Y122A", "result": "2110 ± 80", "unit": "nM"}, {"measurement": "Kd", "setting": "ABH2 I168A", "result": "2700 ± 400", "unit": "nM"}, {"measurement": "Kd", "setting": "ABH2 D173A", "result": "2100 ± 90", "unit": "nM"}]}, {"binder": "B2", "values": [{"measurement": "Kd", "setting": "ABH2 Y122A", "result": "2490 ± 60", "unit": "nM"}, {"measurement": "Kd", "setting": "ABH2 I168A", "result": "4100 ± 100", "unit": "nM"}, {"measurement": "Kd", "setting": "ABH2 D173A", "result": "3090 ± 70", "unit": "nM"}]}]}
